In US20110269148A1 (published 2011):

Biological target: protein A on the surface of Staphylococcus aureus cells (ATCC 12598) (Staphylococcus aureus, UniProt P38507 37-477)
Assay: cell-based or functional assay

B1: sdAb-NAEB: single domain antibody HVHP428 (human VH) conjugated to rhodamine 6G gold nanoaggregate embedded beads with silica shell (other)
VH: QLQLQESGGGLVQPGGSLRLSCAASGFTFSSYAMSWFRQAPGKGLEWVGFIRSKAYGGTTEYAASVKGRFTISRDDSKSIAYLQMNSLRAEDTAMYYCARRAKDGYNSPEDYWGQGTLVTVSS
modifications: covalently coupled by EDC/NHS chemistry to the amine- or carboxylate-modified silica shell of the bead; coupled residues not stated
B1 was tested, and the “agglutination relative to the sdAb pentamer (Ryan et al., 2009; MAC value 3×10^13 pentamer mL^-1)” value was greater than 100 fold.
